Here are results for one substance from patent US6737240B1, “Methods of screening for a multi-drug resistance conferring peptide” (Rigel Pharmaceuticals, Inc., priority 1999, dated 2004).

Test [1] has as its target T1, proteasome alpha type subunit XAPC7 (Homo sapiens, UniProt O14818).
T1 construct: expressed in transfected cells; host or cells: yeast (two-hybrid transformants)
T1 sequence (O14818 1-248): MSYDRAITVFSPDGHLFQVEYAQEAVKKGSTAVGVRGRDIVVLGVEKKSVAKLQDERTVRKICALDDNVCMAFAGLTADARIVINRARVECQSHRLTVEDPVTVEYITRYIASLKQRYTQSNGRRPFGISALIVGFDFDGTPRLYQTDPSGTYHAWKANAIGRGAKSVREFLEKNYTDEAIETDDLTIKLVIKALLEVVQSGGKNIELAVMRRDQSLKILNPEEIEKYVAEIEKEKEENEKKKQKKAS
Description: Yeast two-hybrid screening with RGP8.5 bait. In kind it is binding. The note with it: of 26 positive clones from 20 million transformants. From the text:
(§1) Yeast two-hybrid screening. The bait used for two-hybrid screening was RGP8.5 fused to the Gal4 DNA binding domain containing a three glycine linker/spacer. A cDNA library made from a combination of multiple human tissues (brain, lymphocyte, stomach, pancreas, liver, intestine) was used for the screening. 20 million transformants were screened. 27 His^+/LacZ^+ colonies were retrieved for further analysis.

In test [2] the target is T2, proteasome alpha type subunit Zeta (Homo sapiens, UniProt P28066).
T2 construct: expressed in transfected cells; host or cells: yeast (two-hybrid transformants)
T2 sequence (P28066 1-241): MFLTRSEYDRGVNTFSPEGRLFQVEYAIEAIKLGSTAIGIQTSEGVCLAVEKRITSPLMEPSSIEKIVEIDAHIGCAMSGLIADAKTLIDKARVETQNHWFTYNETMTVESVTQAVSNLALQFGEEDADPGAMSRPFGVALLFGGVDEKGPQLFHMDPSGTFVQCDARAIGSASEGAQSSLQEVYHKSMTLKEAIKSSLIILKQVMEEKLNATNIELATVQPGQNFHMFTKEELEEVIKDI
Description: Yeast two-hybrid screening with RGP8.5 bait. The class given is binding. The note with it: of 26 positive clones from 20 million transformants.
Source text: as §1

The target in a further test is T3, XAPC7 (Homo sapiens, UniProt O14818).
T3 construct: endogenous in cells; host or cells: HeLa cell extract
Put plainly: Biotinylated RGP8.5 peptide affinity purification from HeLa cell extract. The class given is binding. Particulars: streptavidin beads. The protocol: (§2) HeLa cell extract were pre-cleared with a streptavidin column. The biotinylated RG8.5 peptide was then added to the cell lysate and allowed to mix overnight at 4° C. Next day streptavidin agarose beads were incubated with the cell extract for 3 hours at 4° C. After washing the beads five times with lysis buffer, the associated proteins were eluted with 2× protein sample buffer, resolved on SDS-PAGE and detected with monoclonal antibody against Zeta and XAPC7 proteasome subunits.
(§3) Transfection, immunoprecipitation and western blot. A calcium phosphate transfection method was used for all transfections of test constructs into 293T cells. Cells were lysed in […] of TNT buffer (20 mM Tris-HCl pH7.5, 200 mM NaCl and 1% Triton-X100), supplemented with 1 mM DTT and protease cocktail (Boehringer Mannheim). The cell extracts were incubated with […] anti-flag antibody conjugated beads (Babco) at 4° C. The beads were spun down and washed with […] TNT buffer for four times. For immunoprecipitation with biotinylated RG8.5 peptide, 3 10^6 Hela cells were lysed in a buffer containing 20 mM HEPES pH7.4, 150 mM NaCl and 1% NP40 and precleaned with a Streptavidin column (Pierce, Rockford, Ill.) to reduce non-specific binding. 3 ml of biotinylated RG8.5 peptide (1 mg/ml) in DMSO was added to the cell lysate and allowed to mix overnight at 4 ° C. […]

A further test has as its target T4, Zeta (Homo sapiens, UniProt P28066).
T4 construct: endogenous in cells; host or cells: HeLa cell extract
Described as above. The class given is binding. The note with it: streptavidin beads. The protocol: as §2, §3

For the next test, the system named is Bcl-xL. Put plainly: Endogenous anti-apoptotic protein level. Particulars: cells expressing RGP8.5, presence or absence of Dox; data not shown. In kind it is cell-based.
A further test concerns cyclin B. Description: Western blot of endogenous protein levels in RGP8.5 HeLa clone. Particulars: RGP8.5 expressing cells compared with GFP negative cells. The class given is cell-based. The protocol: (§4) FIG. 6 depicts that inhibition of proteasome activity by RGP8.5 arrests cell cycle progression. […] To examine the effect of RGP8.5 on the endogenous protein expression, RGP8.5 expressing HeLa cells were incubated with doxycycline (200 ng/ml) for 4 days before harvesting for western analysis. Equal amount of cell lysate were loaded on each lane, separated by SDS-PAGE and immunoblotted with antiserum against GFP (Kodak), hsp70 and cyclin B1 (Santa Cruz).
as §3
For orientation: Immunoblotting shows a protein as a band on a membrane.

The next test deals with hsp70. The description is as above. In kind it is cell-based. The note with it: irrespective of expression of the peptide. The procedure:
as §4, §3

The test system of another test is HeLa cells. Put plainly: Flow cytometric analysis of cellular DNA content (cell cycle). The class given is cell-based. The note with it: peptide positive (GFP gated) vs peptide negative cells. The procedure: RG8.5 peptide expressing cells were growing to 50% confluence. The cells were harvested and processed for flow cytometry of DNA. In the DNA content profile, the bold line represents the peptide negative cells and the grayed area curve represents the RG8.5 peptide positive cells. Cells were gated for GFP expression, FIG. 6B top, as indicated.
Flow cytometric analysis of cellular DNA content. The RG8.5 expressing cells were grown in the logarithmic phase. The cells were harvested, washed once with PBS and fixed in 2% paraformaldehyde pH7.4 at 4° C. for 30 minutes. After washing with 1 %BSA-PBS, the cells were resuspended in PI staining buffer containing […] RNase, 50 ug/ml PI, 0.1% Triton X100 in 0.1% Na Citrate pH7.4 buffer, RT for 30 min, and analyzed on FACS.
(In general: Flow cytometry measures light scatter and fluorescence of single cells or particles in a stream.)

As to “MGEFLIVKVVWGRMVCWV-LVVRRFVLVIVLENSLSSNQGPP [RGP8.5]”, in test [1], the “positive yeast two-hybrid clones encoding XAPC7” value was 25. Moreover, the “positive yeast two-hybrid clones encoding Zeta” value in test [2] is listed as 1. In the test with XAPC7, the “binding of endogenous XAPC7 subunit” value is reported as “shown to bind”. The “binding of endogenous Zeta subunit” value with Zeta is “shown to bind”. Further, the Bcl-xL expression level result in the test with Bcl-xL is given as “same expression level”. In addition, the “endogenous cyclin B protein level” value in the test on cyclin B was “slightly elevated levels”. The “endogenous hsp70 protein level” value with hsp70 is on record as “same level”. The cell cycle distribution entry in the test on HeLa cells is “accumulate at G2/M”.
